From US20190375831A1 (US Dept. of Health and Human Services, published 2019)
Substitutions are numbered along the chain they refer to.

Tests used:
[1] = target: T1, PfCSP on P. falciparum sporozoites (PfSPZ) (Plasmodium falciparum, UniProt P19597 19-374); assay: ELISA on coated PfSPZ, OD405nm
[2] = target: T2, recombinant PfCSP (rPfCSP, residues 21-375) (Plasmodium falciparum, UniProt P19597 21-375); assay: ITC, second binding event
T2 construct: also called recombinant wild type PfCSP; not shown: C-terminal Avi-tag, HRV3C-processing tag and His-purification tag
T2 sequence (P19597 21-375): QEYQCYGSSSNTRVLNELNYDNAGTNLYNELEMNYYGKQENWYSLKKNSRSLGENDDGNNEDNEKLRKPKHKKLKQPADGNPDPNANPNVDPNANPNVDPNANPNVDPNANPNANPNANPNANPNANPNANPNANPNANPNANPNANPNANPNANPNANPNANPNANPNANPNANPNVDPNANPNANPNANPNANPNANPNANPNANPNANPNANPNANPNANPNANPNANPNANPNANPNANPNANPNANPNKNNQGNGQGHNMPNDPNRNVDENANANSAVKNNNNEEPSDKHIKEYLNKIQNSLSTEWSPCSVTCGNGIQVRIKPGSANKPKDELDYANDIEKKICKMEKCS

[3] = target: T2, recombinant PfCSP (rPfCSP, residues …); assay: ELISA on coated rPfCSP, OD405nm
[4] = target: T2, recombinant PfCSP (rPfCSP, residues …); assay: ITC, first binding event
[5] = target: T2, recombinant PfCSP (rPfCSP, residues …); assay: biolayer interferometry, biotinylated CSP on the sensor, whole IgG in solution; apparent KD
[6] = target: T1, PfCSP on P. falciparum sporozoites …; assay: immunofluorescence assay on PfSPZ
[7] = target: T2, recombinant PfCSP (rPfCSP, residues …); assay: ITC, CIS43 Fab injected into rPfCSP, two sets of sites, second set
[8] = target: T2, recombinant PfCSP (rPfCSP, residues …); assay: ITC, CIS43 Fab injected into rPfCSP, two sets of sites, first set
[9] = target: T2, recombinant PfCSP (rPfCSP, residues …); assay: ITC, one binding event
[10] = target: T2, recombinant PfCSP (rPfCSP, residues …); assay: ITC, mAb injected into rPfCSP, one set of sites (Kd = 51 nM)
[11] = target: T2, recombinant PfCSP (rPfCSP, residues …); assay: ITC, mAb injected into rPfCSP, one set of sites (Kd = […] nM)
[12] = target: T2, recombinant PfCSP (rPfCSP, residues …); assay: ITC, mAb injected into rPfCSP, one set of sites (Kd = […] nM)

T1 sequence (P19597 19-374 limits assumed): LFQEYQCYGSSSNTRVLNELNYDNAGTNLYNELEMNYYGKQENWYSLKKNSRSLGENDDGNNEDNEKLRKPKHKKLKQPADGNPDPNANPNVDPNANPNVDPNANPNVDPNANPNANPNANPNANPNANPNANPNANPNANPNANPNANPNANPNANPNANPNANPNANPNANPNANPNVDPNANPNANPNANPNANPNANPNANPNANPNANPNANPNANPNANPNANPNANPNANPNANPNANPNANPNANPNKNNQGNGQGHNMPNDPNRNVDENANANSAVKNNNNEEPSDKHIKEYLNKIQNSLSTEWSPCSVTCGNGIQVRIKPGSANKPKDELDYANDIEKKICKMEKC

B1: mAb CIS34 (antibody, human IgG1, kappa, V domains shown)
VH: QVQLVESGGGVVQPGRSLRLSCAASGFTFSSYGIHWVRQAPGKGLEWVAVIWYDGSKKYYGDSVKGRFTISRDNSKNTLYLQMNSLRVEDTAVYYCARAVIAATGTRGYWFDPWGQGTLVTVSS
VL: DIIMTQSPVSLSASVGDRVTITCRASQSISSHLNWYQQKPGKAPKLLIYAASSLQSGVPSRFSGSGSGTDFTLTISSLQPEDFATYSCQQTYRGFTFAPGTKVDIKR
B1 was tested, and the binding result [1] was “binds”, the Kd [2] was 80 nM and the “EC50 (read off the curve)” value [3] was ~3 ng/mL. For the same binder, the Kd [4] was 31 nM and the Kd [5] was 1.5 nM.

B2: CIS06 (antibody, V domains shown)
VH: QVQLVQSGPEVKKPGTSVKVSCKASGFTFSSSAVQWVRQARGQRLEWIGWIVVGSGKTKYAQNFQQRVTITRDMSTSTAYLELSTLRSEDTAVYYCAAVVNWNDESGFDPWGQGTLVTVSS
VL: DIQMTQSPSSLSAFVGDRVTITCRASQSIGTYLNWYQQKVGQAPKLLIYTASSLRSGVPSRFSGSGSGTDFTLTITSLQPEDFATYYCQQSYSTYTFGQGTKLEIK
notes: also called mAb CIS06
B2 was tested, and the “EC50 (read off the curve)” value [3] was ~100 ng/mL.

B3: CIS04 (antibody, V domains shown)
VH: QVQLVQSGAEVKKPGASVKVSCKASGYTFTSYAIHWVRQAPGQRLEWMGWIKAGNGDTRYSQKFQGRVTITRDTSATTAYMELSSLRSEDTAVYYCGLLTVLTPDDAFDIWGQGTMVTVSS
VL: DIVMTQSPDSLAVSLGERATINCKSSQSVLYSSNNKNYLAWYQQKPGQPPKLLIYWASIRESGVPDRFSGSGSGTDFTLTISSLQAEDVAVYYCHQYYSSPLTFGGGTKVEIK
notes: also called mAb CIS04
B3: binds [6].

B4: CIS43 Fab (Fab, V domains shown)
VH: B3 VH with D57N, G66D, A76T, G97A
VL: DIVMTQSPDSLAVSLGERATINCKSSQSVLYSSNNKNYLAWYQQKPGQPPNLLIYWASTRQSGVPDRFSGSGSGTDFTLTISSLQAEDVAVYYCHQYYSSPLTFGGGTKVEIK
B4 was tested, and the “-TΔS2” value [7] was -4.3 kcal/mol, the Kd [7] was 250 nM and the ΔG2 [7] was -9 kcal/mol. For the same binder, the ΔH2 [7] was -4.7 kcal/mol, the “-TΔS1” value [8] was 12 kcal/mol and the Kd [8] was 16 nM. For the same binder, the ΔG1 [8] was -10.6 kcal/mol and the ΔH1 [8] was -22.6 kcal/mol.

B5: mAb CIS42 (antibody, V domains shown)
VH: QVQLVQSGSELKKPGASVKVSCKTSGYTFTTYAMNWVRQAPGQGLEWMGWINTNTGNPTYAPGFTGRFVFSFDTSVSTAYLQISSLKAEDTAVYYCARVYSYGVPFDYWGQGTLVTVSS
VL: QSVLTQPASVSGSPGQSITISCTATSSNVGSFNLVSWYQHHPGKAPKLIIHEVSKRPSGASNRFSGSKSGNTASLTISGLQAEDEADYYCCSYVGSDTWVFGGGTKLTVL
B5 was tested, and the Kd [9] was 51 nM, the binding result [1] was “binds” and the “EC50 (read off the curve)” value [3] was ~5 ng/mL. The “-TΔS” value [10] was 12.8 kcal/mol, the ΔG [10] was -9.9 kcal/mol and the ΔH [10] was -22.7 kcal/mol. The Kd [5] was 0.76 nM.

B6: mAb10 (antibody, human IgG1, kappa, V domains shown)
VH: EVQLVESGGGVVQPGRSLRLSCEASGFTFSTYGMHWVRQAPGKGLEWVAIIWHDGSKKYHADSVRGRFTISRDNSKNTLYLQMNSLRAEDTAVYFCARVGNYGGDWGAGFDYWGQGTLVTVSS
VL: DIQMTQSPSFLSASVGDRVTIACRASQSISSWLAWYQQKPGKAPKLLIYHASSLESGVPSRFSGSASGTEFALTISSLQPDDFATYYCQQYSSYWTFGQGTKVEIKR
In the case of B6, the “-TΔS” value [11] is reported as 22.7 kcal/mol and the ΔH [11] is reported as -33 kcal/mol.

B7: mAb CIS23 (antibody, V domains shown)
VH: EVQLVESGGGVVQPGRSLRLSCAASGFTFSSYGMYWVRQAPGKGLEWVALISHDGSNKFYADSVKGRFTISRDNSKNTLYLQMNSLRAEDTAVYYCAKDLGYSSSWGYFDYWGQGTLVTVSS
VL: EIVLTQSPATLSLSPGERATLSCRASQSVSSYLAWYQQKPGQAPRLLIYDASNRATGIPARFSGSGSGTDFTLTISSLEPEDFAVYYCQQRSNWYTFGQGTKLEIK
In the case of B7, the binding result [1] is reported as “binds”, the “-TΔS” value [12] is reported as 13.1 kcal/mol and the ΔG [12] is reported as -10.4 kcal/mol. It also gave a ΔH [12] of -23.5 kcal/mol.
